Results from the DeepSol protein solubility set.

Assay: soluble on expression in E. coli; label from the status in PepcDB or PDB records

Sequence	soluble on expression in E. coli
MKVSEKTYLSIEEIISLPTVSSTNISDDGKNVAFVKRTANWEDNTYRNHVWIYEKDKGKSYPLTTGDIDSIHPLWSPDSKSIAYLSSGGDGDMKNQIFVKSLDDYSKVKITDEKEGISNFKWDPTGKGFYYITQSKECEEIKKRKELYGDFQHVGKEHQNNCLCYIEMEKVIQNDKEEREINGVYQLTGGKDFYIHGFDISDNGKKVVCMATPSLNDHMNGDLYILDVEARELQQMNVDKLLGGSACFSPEGNKICYSASIREKEYYRNHIQESTLEIYDMNTGEVIQPLTNFDSMVMPLQWTAKGILIRWQDKTNYFIGLLAEDGTVETLREKVDGFIMDASITRDGNHITYNKAITNETFEIYLDDKKITNENSLFEGKLKSNREIISWRSSDGLEIEGVLSTPVEFDANKKYPLLVVIHGGPAWASFPIFSNCFNEKYPIEQFVEKGFIVLEPNYRGSSGYGNEFLKANYRKQGLADYDDVISGVDELVEKGMVDKDRVGVMGWSNGGYISAFCSTFSSRFKAISVGGGITNWSTHYVNTDIPYFIRMYLGNTPWNDPDIYKRTSPMTYIKSACTPTLIQHGEKDARIPITNAYELHQGLKDMEVDTELIIFKGMAYSSDQPGVHVAIMKQNLMWFSHYILGESMEDFSTI	not soluble
MGSDKIHHHHHHMLRLSALGDVCNLVPTIRVLQRLWPDARITWIIGKGEHSLLAGLSGVEFIVYDKATGLAGMREVWRQLGDTRFDVLLHMQQALRASVLSLGLKADLRIGYDKARAKDWQHWFTHRQLTPHPRAHVLDSFLDFARLLGGAERVDAEPLRWDLAIPDTAYQEAARVTGDAPYIVISPCANPRLRNFRNWSAEGYAAVISHAWQEHGLRTVMTGGGSTQEQEMGARIRALCAEEAVIDAIGATSLKGLLAMLDRARMVIAPDSGPVHMANALRTPTLGLYATTNPERAAPYCWRDFVVDRYPDAVRRYLHKSPEAITWGARVRHPDAMSLIHADDVIAQFDALLNAAPSASSRPEPDHET	not soluble
MGNIVKPFKQQPSSFAYQPLTVPLIPEVEAQSENLRVFSFKEWMKATKKSRQDRVVIRDDHYIRSFYKGYIDNTTFAPSRTKTGTPVSVVEYLHGSSQALQEWVDIFGVILLELLVGSQDRSTALKNQSSDWTGSFLPDNYKIGEIIDPRIGSDYPVDAATKIGLGPNVRCPYIGHRDMDKC	soluble
MNVGILGIGRYVPEKVVTNHDLEKIMDTSDEWIRTRTGIAERRIADDTIDTSYMAVEASKKALEDAGISGEDIDLILVATVTPDRAFPAVACVIQEAIGAKHAAAMDLSAACAGFMYGMITAQQFIQTGTYKNVLVVGSDKLSKIVDWNDRNTAVLFGDGAGAIVMGAVSEGKGVLSFELGADGSGGKHLYQDEYVMMNGREVFKFAVRQLGDSCLRVLDKAGLTKEDVDFLVPHQANIRIMESARERLNLPQEKMSMTIEKFGNTSASSIPIAMVEELQNGRIQDGDLIILVGFGGGLTWGAVALRWGK	not soluble
MTPNGHHFRTVIYNAAAVGNLQRIKVFTINSRNDRQWIIDCFNSDQDGRYPLVIAARNGHANVVEYLLEIGADPSVRGVVEFDNENIQGTPPLWAASAAGHIEIVKLLIEKANADVNQATNTRSTPLRGACYDGHLDIVKYLLEKGADPHIPNRHGHTCLMIASYRNKVGIVEELLKTGIDVNKKTERGNTALHDAAESGNVEVVKILLKHGSVLMKDIQGVDPLMGAALSGFLDVLNVLADQMPSGIHKRDALKLLGSTLLDKKMDAMSAMNCWKQSMEVPLHADDLRLVREMETFFEPQEVYEYQREAQNIAQVELLDGNIEAQRMQALVIRERILGGAHTDVHYYLRFRGAVYCDMGQMNRCYDLWKHALELQQKHFAPLYYGTITTLQSFHETFSMSLNDFVNNHHANRNLRVRSSWVKYVFNGVCLELERAAAWTGAPLLEDTECCGKERCQHATEESEYKKLVYVAVHLVNVLERLSLPSAHIDDSDEEKEPKADVRRLMIVCHELHIPLLHHTLEERIPDSNSAELGLPKAAVLEQLLELDLDVNATDKNNDTPMHILLRAREFRKSLVRALLVRGTWLFARNRHGDVVLNVMKRMKALNHANFDDLPLGRHITLAGLVANAMRVKYPKKFVGVEEQMPLELRRFYLAH	not soluble
MSTLAQLLDTKRTALAAELAGFIDRSVSQSSGISGVALKGAVAAAKKVRPDIVTKGAERLLPEVVEVLDPYWASFEASDSTHFGEFLEQHKSEVSDKILEVADRNAEKVDMPALKKAYGSLRGKAASFIEPNLPGLGQIMQNYMK	not soluble
MSLSEKPCERVVLDTSVFTNPSVAAVFGDNATSALAQFVILARQVSPRMEFYMPPSVLGELHHFTDAEHLPGDLELVIKLRAPRRHDISVPGMFLYELIEDIRQRIDRGLRVAEKAVREVQPTSVDRTIRWLRDRYRDALRTGLLDSSEDLDVILLAVELDGAVASADRGLLQWAEKGGLRLIPPQRLRSILEHLIENGTAGEEGHHHHHH	soluble
RNKVKYIELLGKELEILKGGDLNYQITIRGNDELAALAGEMDSMRRAIRSRQEEEELAHLANRGIVTAMSHDLRTPLTALMGYLDILSIEEDPGKKQKYLSVCRDKACQIKSLSDKLFEYFLVYSSDQDELHADEVNGAEFVGQIVEESLFDLENEGIEVARRAGEITCRLLVDVDLMRRVFGNLFSNILKYADRSHAVQAEYGETKDELVIRLRNSVAADASERESSNIGLKTCETILKRHGGTFLYQKDAGMFEAEVRIPCIRE	not soluble
MTVAKAIFIKCGNLGTSMMMDMLLDERADREDVEFRVVGTSVKMDPECVEAAVEMALDIAEDFEPDFIVYGGPNPAAPGPSKAREMLADSEYPAVIIGDAPGLKVKDEMEEQGLGYILVKPDAMLGARREFLDPVEMAIYNADLMKVLAATGVFRVVQEAFDELIEKAKEDEISENDLPKLVIDRNTLLEREEFENPYAMVKAMAALEIAENVADVSVEGCFVEQDKERYVPIVASAHEMMRKAAELADEARELEKSNDAVLRTPHAPDGKVLSKRKFMEDPE	soluble
MQGRVKWFNAEKGFGFIEREDGDDVFVHFSAIQQDGYKSLEEGQQVEFDIVDGARGPQAANVVKL	not soluble
MGSDKIHHHHHHMRYNRTETLLQLALELSASHSGLSLTDIEQMFGVGRRTAQRMRDAIERVFPQLEEVPQPDRTKRWRLPNRVLGRVSDLNIDDIMAMETAAEILERDNRPDAAASVRRAGAKVRASLRPDDARRIEPDLEALMQAEGIAMRPGPRPKVRPELVETLRHAIMGCREIRVQYRRRYSTNEHSRVVQPYGLLYGQRHYLLAFVPEENEVRSYSFPNIIGVEETGNSFVRDPAFSLTEYAARSFGLYQEEPYEVMWRFSPDAATDAKEFLFHPSQTHESQPDGSLIVRFKAGGLLEMAWHLYQWGDAVEVLEPEKLRAIHERSKVSWVARP	not soluble
MGSDKIHHHHHHMAKLETFYPIVATPKRAGYKEYLPSAVLTGYIRCFWEADDKNFPGNNLVVPDLCADIIFTIDSKTGLVTDAIFVGVSDAPFESDDESNTELFAVRFYAWSLFLFVEQDLTGSMNRVKEPEEMFAGFVSFFQERFAEMTTNMERIALLEEFLLRKLMMLGKQVHPDFLNGIDKLLQNPNQLALGAVSVRQLERLFQKHMGLAPKQTAKLIRFQKVLQALYENPSVPGAELAYLHGFTDQAHLIKQFKRYSNHTPEEMKQIFLQNVANIQ	not soluble
MFFLEHGKVRTFLTPTLRCPMEKTTTQELLAQAEKICAQRNVRLTPQRLEVLRLMSLQDGAISAYDLLDLLREAEPQAKPPTVYRALDFLLEQGFVHKVESTNSYVLCHLFDQPTHTSAMFICDRCGAVKEECAEGVEDIMHTLAAKMGFALRHNVIEAHGLCAACVEVEACRHPEQCQHDHSVQVKKKPR	not soluble
